The target of assay [1] is T1, chimeric antibody c515H7.
T1 construct: Human IgG1/kappa constant domains; also called c515H7 Mab; chimeric 515H7
Briefly: SPR (Biacore X): m-FcγRIII injected over c515H7 Mab immobilized on a CM4 sensorchip; Langmuir model. The method, then: (§1) 2017 RU of c515H7 Mab were immobilized using the amine coupling kit chemistry on the second flowcell (FC2) of a CM4 sensorchip. The first flowcell (FC1) activated by NHS and EDC mixture and des-activated by ethanolamine served as the reference surface to check and subtract the non specific interaction between the analyte (Fc gamma receptors) and the sensorchip matrix.
(§2) The kinetic experiments were carried out at 25° Celsius at a flow rate of 30 μl/min. The HBS-EP buffer was used either as the running buffer or for the preparation of analyte solutions. The analyte solutions were injected during 90 seconds (association phase) with a 90 seconds delay (dissociation phase). An injection of running buffer as analyte was used as a double reference. All the sensorgrams were corrected by this double reference sensorgram.
(§3) After each injection of the analyte, the sensorchip was regenerated by injection of 20 mM NaOH, 75 mM NaCl solution.
(Surface plasmon resonance follows binding to a sensor surface in real time, without labels.)

Assay [2] addresses T2, humanized antibody Hz515H7 VH1 D76N VL2.
T2 construct: IgG1/kappa; also called hz515H7VL2; hz515H7-1
Briefly: SPR (Biacore X): m-FcγRIII injected over hz515H7VH1D76NVL2 Mab immobilized on a CM4 sensorchip; Langmuir model. As for the experimental part:
(§4) 1964 RU of hz515H7VH1D76NVL2 Mab were immobilized using the amine coupling kit chemistry on the second flowcell (FC2) of a CM4 sensorchip. The first flowcell (FC1) activated by NHS and EDC mixture and des-activated by ethanolamine served as the reference surface to check and subtract the non specific interaction between the analyte (Fc gamma receptors) and the sensorchip matrix.
as §2
Using the Langmuïr model the constant of dissociation was around 17 and 18 nM.

Assay [3] addresses T1, chimeric antibody c515H7. Briefly: SPR (Biacore X): m-FcγRIII injected over c515H7 Mab immobilized on a CM4 sensorchip; heterogeneous ligand model, minor component (1%). The method, then: as §1, §2, §3
The target in assay [4] is T1, chimeric antibody c515H7. Briefly: SPR (Biacore X): m-FcγRIII injected over c515H7 Mab immobilized on a CM4 sensorchip; heterogeneous ligand model, major component (99%). As for the experimental part:
as §1, §2, §3

The target in assay [5] is T2, humanized antibody Hz515H7 VH1 D76N VL2. Briefly: SPR (Biacore X): m-FcγRIII injected over hz515H7VH1D76NVL2 Mab immobilized on a CM4 sensorchip; heterogeneous ligand model, major component (66%).
T2 sequence (heavy, as listed by the source, chain 1 of 2): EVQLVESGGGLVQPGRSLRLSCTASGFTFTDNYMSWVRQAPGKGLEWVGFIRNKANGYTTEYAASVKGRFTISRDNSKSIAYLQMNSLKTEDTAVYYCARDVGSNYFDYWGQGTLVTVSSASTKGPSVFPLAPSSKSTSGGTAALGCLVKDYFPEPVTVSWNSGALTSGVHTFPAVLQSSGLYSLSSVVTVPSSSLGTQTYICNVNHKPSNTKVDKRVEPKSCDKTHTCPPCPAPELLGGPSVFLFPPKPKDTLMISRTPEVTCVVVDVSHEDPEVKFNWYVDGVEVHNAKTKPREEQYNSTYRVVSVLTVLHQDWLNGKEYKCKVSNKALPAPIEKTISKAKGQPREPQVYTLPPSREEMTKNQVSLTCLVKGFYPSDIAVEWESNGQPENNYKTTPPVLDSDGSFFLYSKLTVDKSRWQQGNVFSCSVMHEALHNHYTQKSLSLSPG
T2 sequence (light, as listed by the source, chain 2 of 2): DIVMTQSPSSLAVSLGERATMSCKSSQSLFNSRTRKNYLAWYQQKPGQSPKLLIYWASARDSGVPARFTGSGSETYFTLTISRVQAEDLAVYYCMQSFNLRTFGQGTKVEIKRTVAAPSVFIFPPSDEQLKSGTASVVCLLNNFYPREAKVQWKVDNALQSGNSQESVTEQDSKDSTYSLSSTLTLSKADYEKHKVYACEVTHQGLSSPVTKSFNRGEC
For assay [6] the target is unchanged. Briefly: SPR (Biacore X): m-FcγRIII injected over hz515H7VH1D76NVL2 Mab immobilized on a CM4 sensorchip; heterogeneous ligand model, minor component (34%).
The target in assay [7] is T1, chimeric antibody c515H7. Briefly: SPR (Biacore X): h-FcγRI injected over c515H7 Mab immobilized on a CM4 sensorchip; Langmuir model. As for the experimental part:
as §1, §2, §3

Assay [8] concerns the target T2, humanized antibody Hz515H7 VH1 D76N VL2. Briefly: SPR (Biacore X): h-FcγRI injected over hz515H7VH1D76NVL2 Mab immobilized on a CM4 sensorchip; Langmuir model. The method, then: (§5) The experiments were carried out using a Biacore X device. The soluble forms of the four Fc […]gamma receptors used in this study were purchased from R&D Systems: […]
For assay [9], the target named is T1, chimeric antibody c515H7. Briefly: SPR (Biacore X): h-FcγRI injected over c515H7 Mab immobilized on a CM4 sensorchip; heterogeneous ligand model, minor component (0%). The method, then:
as §1, §2, §3

In assay [10] the target is T1, chimeric antibody c515H7. Briefly: SPR (Biacore X): h-FcγRI injected over c515H7 Mab immobilized on a CM4 sensorchip; heterogeneous ligand model, major component (100%). As for the experimental part:
as §1, §2, §3

The target in assay [11] is T2, humanized antibody Hz515H7 VH1 D76N VL2. Briefly: SPR (Biacore X): h-FcγRI injected over hz515H7VH1D76NVL2 Mab immobilized on a CM4 sensorchip; heterogeneous ligand model, minor component (1%). As for the experimental part: as §5
For assay [12] the target is unchanged. Briefly: SPR (Biacore X): h-FcγRI injected over hz515H7VH1D76NVL2 Mab immobilized on a CM4 sensorchip; heterogeneous ligand model, major component (99%). As for the experimental part:
as §5

The target in assay [13] is T1, chimeric antibody c515H7. Briefly: SPR (Biacore X): m-FcγRI injected over c515H7 Mab immobilized on a CM4 sensorchip; Langmuir model. The method, then: as §1, §2, §3
Assay [14] addresses T2, humanized antibody Hz515H7 VH1 D76N VL2. Briefly: SPR (Biacore X): m-FcγRI injected over hz515H7VH1D76NVL2 Mab immobilized on a CM4 sensorchip; Langmuir model. As for the experimental part: as §4, §2
(§6) After each injection of the analyte, the sensorchip was regenerated by injection of either 20 mM NaOH solution after h-FcγRI and m-FcγRIII or 10 mM NaOH after h-FcγRIIIA and m-FcγRI.

The target in assay [15] is T1, chimeric antibody c515H7. Briefly: SPR (Biacore X): m-FcγRI injected over c515H7 Mab immobilized on a CM4 sensorchip; heterogeneous ligand model, major component (81%). The method, then: as §1, §2, §3
Assay [16] addresses T1, chimeric antibody c515H7. Briefly: SPR (Biacore X): m-FcγRI injected over c515H7 Mab immobilized on a CM4 sensorchip; heterogeneous ligand model, minor component (19%). As for the experimental part:
as §1, §2, §3

Assay [17] addresses T2, humanized antibody Hz515H7 VH1 D76N VL2. Briefly: SPR (Biacore X): m-FcγRI injected over hz515H7VH1D76NVL2 Mab immobilized on a CM4 sensorchip; heterogeneous ligand model, major component (82%). The method, then: as §4, §2, §6
Assay [18] has the same target. Briefly: SPR (Biacore X): m-FcγRI injected over hz515H7VH1D76NVL2 Mab immobilized on a CM4 sensorchip; heterogeneous ligand model, minor component (18%). As for the experimental part:
as §4, §2, §6

T1 sequence (heavy, as listed by the source, chain 1 of 2): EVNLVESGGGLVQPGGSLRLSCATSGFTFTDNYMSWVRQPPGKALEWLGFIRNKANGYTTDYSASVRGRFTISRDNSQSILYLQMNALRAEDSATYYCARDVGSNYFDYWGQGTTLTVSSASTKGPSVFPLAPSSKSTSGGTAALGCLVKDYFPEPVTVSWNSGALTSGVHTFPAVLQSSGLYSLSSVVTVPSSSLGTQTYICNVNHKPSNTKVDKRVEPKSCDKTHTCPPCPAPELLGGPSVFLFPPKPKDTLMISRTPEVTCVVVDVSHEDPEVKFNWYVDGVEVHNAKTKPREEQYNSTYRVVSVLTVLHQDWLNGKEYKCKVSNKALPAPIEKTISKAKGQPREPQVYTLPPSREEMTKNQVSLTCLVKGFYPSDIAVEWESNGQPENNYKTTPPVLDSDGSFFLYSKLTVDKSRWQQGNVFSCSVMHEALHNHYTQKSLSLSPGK
T1 sequence (light, as listed by the source, chain 2 of 2): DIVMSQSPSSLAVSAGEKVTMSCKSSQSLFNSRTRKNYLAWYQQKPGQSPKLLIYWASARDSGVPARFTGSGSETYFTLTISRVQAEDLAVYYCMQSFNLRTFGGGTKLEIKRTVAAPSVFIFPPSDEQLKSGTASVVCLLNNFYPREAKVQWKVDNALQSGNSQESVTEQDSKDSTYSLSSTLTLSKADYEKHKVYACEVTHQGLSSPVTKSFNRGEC

B1: Recombinant mouse FcγRIII [CD16], Ala31-Thr215 with C-terminal 10-His tag (receptor)
chain: ALPKAVVKLDPPWIQVLKEDMVTLMCEGTHNPGNSSTQWFHNGRSIRSQVQASYTFKATVNDSGEYRCQMEQTRLSDPVDLGVISDWLLLQTPQRVFLEGETITLRCHSWRNKLLNRISFFHNEKSVRYHHYKSNFSIPKANHSHSGDYYCKGSLGSTQHQSKPVTITVQDPATTSSISLVWYHTHHHHHHHHHH
notes: Soluble form bought from R&D Systems; also called m-FcγRIII
As to B1, the t1/2 in the assay with chimeric antibody c515H7 [1] came to 2.61 min; in [2], 3.17 min; in the assay with chimeric antibody c515H7 [3] it was 4.85 min; with chimeric antibody c515H7 [4], 2.59 min; in assay [5] it was 313 min; in assay [6], 0.39 min.

B2: Recombinant human FcγRI [CD64], Gln16-Pro288 with C-terminal 6-His tag (receptor)
chain: QVDTTKAVITLQPPWVSVFQEETVTLHCEVLHLPGSSSTQWFLNGTATQTSTPSYRITSASVNDSGEYRCQRGLSGRSDPIQLEIHRGWLLLQVSSRVFTEGEPLALRCHAWKDKLVYNVLYYRNGKAFKFFHWNSNLTILKTNISHNGTYHCSGMGKHRYTSAGISVTVKELFPAPVLNASVTSPLLEGNLVTLSCETKLLLQRPGLQLYFSFYMGSKTLRGRNTSSEYQILTARREDSGLYWCEAATEDGNVLKRSPELELQVLGLQLPTPHHHHHH
notes: range 16-288; Soluble form bought from R&D Systems; also called h-FcγRI
For B2, the t1/2 in the assay with chimeric antibody c515H7 [7] was determined as 19.3 min; in [8], 21.4 min; in the assay with chimeric antibody c515H7 [9], 158 min; with chimeric antibody c515H7 [10], 19.3 min; in [11], 578 min; in [12], 28.9 min.

B3: Recombinant mouse FcγRI [CD64], Gln25-Pro297 with C-terminal 6-His tag (receptor)
chain: EVVNATKAVITLQPPWVSIFQKENVTLWCEGPHLPGDSSTQWFINGTAVQISTPSYSIPEASFQDSGEYRCQIGSSMPSDPVQLQIHNDWLLLQASRRVLTEGEPLALRCHGWKNKLVYNVVFYRNGKSFQFSSDSEVAILKTNLSHSGIYHCSGTGRHRYTSAGVSITVKELFTTPVLRASVSSPFPEGSLVTLNCETNLLLQRPGLQLHFSFYVGSKILEYRNTSSEYHIARAEREDAGFYWCEVATEDSSVLKRSPELELQVLGPQSSAPHHHHHH
notes: range 25-297; Soluble form bought from R&D Systems; also called m-FcγRI
Turning to B3, the t1/2 turned out to be 0.17 min in the assay with chimeric antibody c515H7 [13]; 0.18 min in [14]; 0.08 min with chimeric antibody c515H7 [15]; 0.3 min with chimeric antibody c515H7 [16]; 0.11 min in assay [17]; 0.53 min in assay [18].

Source of the values: patent US20140120555A1 (PIERRE FABRE MEDICAMENT, published 2014).
